Measurements from patent EP0251446B1, “Non-human Carbonyl hydrolase mutants, DNA sequences and vectors encoding same and hosts transformed with said vectors” (GENENCOR INTERNATIONAL, INC., priority 1986, dated 1988).
Changes are numbered by the printed parent chain. Numbers in names are those of the source. *1 amine or outer side, *2 acyl side, *3 side chain or, on linkers, in order; H or OH if unused. Where a SMILES comes first, the peptide text is derived from it. The star is where a group is joined. pNA = O=[N+]([O-])c1ccc(N*)cc1; Suc = O=C(CCC(=O)[*:2])[*:1]

Legend:
[1] = target: T1, B. amyloliquefaciens subtilisin deletion mutant S153/S156/A158/G159/S160/Δ161-164/I165/S166/A169/R170 (Bacillus amyloliquefaciens, UniProt P00782, A260S/DEL268-271/E263S/G267S/G273S/G276A/K277R/S266G/T265A/V272I); experiment: Kinetics of p-nitroanilide substrate hydrolysis, deletion mutant; format: biochemical; details: Table V; substrate not given; method b166 gives kcat in s-1
T1 construct: made in house
T1 sequence (P00782 with tags, fused parts or gaps A260S/E263S/DEL265-265/S266A/S269I/DEL271-273/G276A/K277R): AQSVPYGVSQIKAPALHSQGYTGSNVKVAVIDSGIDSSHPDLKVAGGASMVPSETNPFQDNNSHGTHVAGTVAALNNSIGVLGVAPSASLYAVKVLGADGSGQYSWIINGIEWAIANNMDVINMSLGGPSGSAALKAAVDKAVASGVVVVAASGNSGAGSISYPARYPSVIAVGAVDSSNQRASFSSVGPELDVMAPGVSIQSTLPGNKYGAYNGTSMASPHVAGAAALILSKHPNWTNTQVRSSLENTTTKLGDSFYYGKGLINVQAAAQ
Excerpt: The effect of deletion of residues 161 through 164 has been shown by comparing the activity of the wild type (WT) enzyme with a mutant enzyme containing this deletion as well as multiple substitutions (i.e., S153/S156/A158/G159/S160/0161-164/1165/S166/A169/R170). This produced the following results:
(§1) Wild-type subtilisin was purified from B. subtilis culture supernatants expressing the B. amyloliquefaciens subtilisin gene (Wells, J.A., et al. (1983) Nucleic Acids Res. 11, 7911-7925) as previously described (Estell, D.A., et al. (1985) J. Biol. Chem. 260, 6518-6521). Details of the synthesis of tetrapeptide substrates having the form succinyl-L-AlaL-AlaL-ProL-[X]-p-nitroanilide (where X is the P1 amino acid) are described by DelMar, E.G., et al. (1979) Anal. Biochem. 99, 316-320. Kinetic parameters, Km(M) and kcat-(s-^1) were measured using a modified progress curve analysis (Estell, D.A., et al. (1985) J. Biol. Chem. 260, 6518-6521). Briefly, plots of rate versus product concentration were fit to the differential form of the rate equation using a non-linear regression algorithm. Errors in kcat and Km for all values reported are less than five percent. The various substrates in Table VIII are ranged in order of decreasing hydrophobicity. Nozaki, Y. (1971), J. Biol. Chem. 246, 2211-2217; Tanford C. (1978) Science 200, 1012).

[2] = target: T2, B. amyloliquefaciens subtilisin, wild type (WT, Gly166) (Bacillus amyloliquefaciens, UniProt P00782); experiment: Kinetics of hydrolysis of succinyl-Ala-Ala-Pro-X-p-nitroanilide substrates (progress curve analysis); format: biochemical
T2 construct: at various amino acid residues within the mature form of the subtilisin molecule; made in house; host or cells: Bacillus subtilis (secreted, culture supernatant)
T2 sequence (P00782 108-382): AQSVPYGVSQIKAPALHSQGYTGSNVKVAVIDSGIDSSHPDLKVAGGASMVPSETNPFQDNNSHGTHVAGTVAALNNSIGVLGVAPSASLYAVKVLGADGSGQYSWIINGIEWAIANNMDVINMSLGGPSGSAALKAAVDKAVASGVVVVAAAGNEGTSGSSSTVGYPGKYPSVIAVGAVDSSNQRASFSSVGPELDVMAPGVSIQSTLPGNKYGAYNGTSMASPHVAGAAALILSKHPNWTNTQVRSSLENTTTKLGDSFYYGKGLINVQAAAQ
Excerpt: A change in substrate specificity is defined as a difference between the kcat/Km ratio of the precursor carbonyl hydrolase and that of the hydrolase mutant. The kcat/Km ratio is a measure of catalytic efficienty. Carbonyl hydrolase mutants with increased or diminished kcat/Km ratios are described in the examples. Generally, the objective will be to secure a mutant having a greater (numerically large) kcat/Km ratio for a given substrate, thereby enabling the use of the enzyme to more efficiently act on a target substrate. A substantial change in kcat/Km ratio is preferably at least 2-fold increase or decrease. However, smaller increases or decreases in the ratio (e.g., at least 1.5-fold) are also considered substantial. An increase in kcat/Km ratio for one substrate may be accompanied by a reduction in kcat/Km ratio for another substrate. […] Km and kcat are measured in accord with known procedures, as described in EPO Publication No. 0130756 or as described herein.
as §1

[3] = target: T3, B. amyloliquefaciens subtilisin variant L217 (Tyr217 to Leu) (Bacillus amyloliquefaciens, UniProt P00782, Y324L); experiment: Kinetics of p-nitroanilide substrate hydrolysis, L217; format: biochemical; details: substrate sAAPFpNa
T3 construct: made in house
T3 sequence (P00782 108-382 Y324L): T2 sequence (P00782 108-382) with Y217L
Excerpt: as §1
Tyr217 has been substituted by all other 19 amino acids. Cassette mutagenesis as described in EPO publication No. 0130756 was used according to the protocol of Figure 22. The EcoRV restriction site was used for restriction-purification of pA217.
Since this position is involved in substrate binding, mutations here effect kinetic parameters of the enzyme. […]

[4] = substrate: C[C@H](NC(=O)CCC(=O)O)C(=O)N[C@@H](C)C(=O)N1CCC[C@H]1C(=O)N[C@@H](CCC(=O)O)C(=O)Nc1ccc([N+](=O)[O-])cc1; experiment: Kinetics of p-nitroanilide substrate hydrolysis, N166; format: biochemical, B. amyloliquefaciens; details: other: Table XIV, 156 Glu / 166 Asn; value in parentheses; synthetic substrate with label as P-1 amino acid
Excerpt: as §1
(§2) The construction of subtilisin mutants containing the substitution of the ionic amino acids Asp, Asn, Gln, Lys and Ang are disclosed in EPO Publication No. 0130756. The present example describes the construction of the mutant subtilisin containing Glu at position 166 (E166) and presents substrate specificity data on these mutants. Further data on position 166 and 156 single and double mutants is presented infra.
(§3) Each of these mutants was analyzed with the tetrapeptide substrates, succinyl-L-AlaL-AlaProL-X-p-nitroanilide, where X was Phe, Ala and Glu.

[5] = substrate: CSCC[C@H](NC(=O)[C@@H]1CCCN1C(=O)[C@H](C)NC(=O)[C@H](C)NC(=O)CCC(=O)O)C(=O)Nc1ccc([N+](=O)[O-])cc1; experiment: as above; format: biochemical, B. amyloliquefaciens; details: other: Table XIV, 156 Glu / 166 Asn; value in parentheses; synthetic substrate with label as P-1 amino acid
Excerpt: as §1, §2, §3

[6] = substrate: C[C@H](NC(=O)CCC(=O)O)C(=O)N[C@@H](C)C(=O)N1CCC[C@H]1C(=O)N[C@@H](CCCCN)C(=O)Nc1ccc([N+](=O)[O-])cc1; experiment: as above; format: biochemical, B. amyloliquefaciens; details: other: Table XIV, 156 Glu / 166 Asn; value in parentheses; synthetic substrate with label as P-1 amino acid
Excerpt: as §1, §2, §3

[7] = substrate: C[C@H](NC(=O)CCC(=O)O)C(=O)N[C@@H](C)C(=O)N1CCC[C@H]1C(=O)N[C@@H](CCC(N)=O)C(=O)Nc1ccc([N+](=O)[O-])cc1; experiment: as above; format: biochemical, B. amyloliquefaciens; details: other: Table XIV, 156 Glu / 166 Asn; value in parentheses; synthetic substrate with label as P-1 amino acid
Excerpt: as §1, §2, §3

[8] = substrate: C[C@H](NC(=O)CCC(=O)O)C(=O)N[C@@H](C)C(=O)N1CCC[C@H]1C(=O)N[C@@H](CCC(=O)O)C(=O)Nc1ccc([N+](=O)[O-])cc1; experiment: Kinetics of p-nitroanilide substrate hydrolysis, Q166; format: biochemical, B. amyloliquefaciens; details: other: Table XIV, 156 Glu / 166 Gln; value in parentheses; synthetic substrate with label as P-1 amino acid
Excerpt: as §1, §2, §3

[9] = substrate: CSCC[C@H](NC(=O)[C@@H]1CCCN1C(=O)[C@H](C)NC(=O)[C@H](C)NC(=O)CCC(=O)O)C(=O)Nc1ccc([N+](=O)[O-])cc1; experiment: as above; format: biochemical, B. amyloliquefaciens; details: other: Table XIV, 156 Glu / 166 Gln; value in parentheses; synthetic substrate with label as P-1 amino acid
Excerpt: as §1, §2, §3

[10] = substrate: C[C@H](NC(=O)CCC(=O)O)C(=O)N[C@@H](C)C(=O)N1CCC[C@H]1C(=O)N[C@@H](CCCCN)C(=O)Nc1ccc([N+](=O)[O-])cc1; experiment: as above; format: biochemical, B. amyloliquefaciens; details: other: Table XIV, 156 Glu / 166 Gln; value in parentheses; synthetic substrate with label as P-1 amino acid
Excerpt: as §1, §2, §3

[11] = substrate: C[C@H](NC(=O)CCC(=O)O)C(=O)N[C@@H](C)C(=O)N1CCC[C@H]1C(=O)N[C@@H](CCC(N)=O)C(=O)Nc1ccc([N+](=O)[O-])cc1; experiment: as above; format: biochemical, B. amyloliquefaciens; details: other: Table XIV, 156 Glu / 166 Gln; value in parentheses; synthetic substrate with label as P-1 amino acid
Excerpt: as §1, §2, §3

C[C@H](NC(=O)CCC(=O)O)C(=O)N[C@@H](C)C(=O)N1CCC[C@H]1C(=O)N[C@@H](Cc1ccccc1)C(=O)Nc1ccc([N+](=O)[O-])cc1 [sAAPFpNa, succinyl-L-AlaL-AlaL-ProL-Phep-nitroanilide, reference compound] (Suc-AAPF-pNA)
kcat [1]: 8 | kcat ([2]; Table V, substrate not given, method b166 gives kcat in s-1): 50 | kcat ([2]; Table XIX, WT): 50 s-^1 | kcat [3]: 277 5'

B1: B. amyloliquefaciens subtilisin variant N166 (Gly166 to Asn) (Bacillus amyloliquefaciens; G273N) (protein)
chain: T2 sequence (P00782 108-382) with G166N
notes: at various amino acid residues within the mature form of the subtilisin molecule; made in house; host or cells: Bacillus subtilis BG2036
Km [4]: 6030 µM | Km [5]: 141 µM | Km [6]: 1320 µM | Km [7]: 724 µM

B2: B. amyloliquefaciens subtilisin variant Q166 (Gly166 to Gln) (Bacillus amyloliquefaciens; G273Q) (protein)
chain: T2 sequence (P00782 108-382) with G166Q
notes: as for B1
Km [8]: 7590 µM | Km [9]: 43.7 µM | Km [10]: 708 µM | Km [11]: 229 µM
